Assay results from paper PMC3460959.
Read-outs that look alike come from different tables or passages of the source.

Columns and labels:
[1] = target: Substance P (FAM-SP) (Homo sapiens), P20366
[2] = target: Substance P (FAM-SP) (Homo sapiens), P20366; remark: listed apart in the source

Chain of Substance P (FAM-SP) (Homo sapiens), P20366 (P20366 whole entry, looked up): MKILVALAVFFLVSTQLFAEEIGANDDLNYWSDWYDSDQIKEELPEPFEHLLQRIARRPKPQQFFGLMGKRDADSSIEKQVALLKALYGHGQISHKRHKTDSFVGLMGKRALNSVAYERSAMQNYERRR

Kd [1]: 83 nM
Kd [2]: 34 nM
B1: Neurokinin 1 receptor (NK1R), P25103 (protein)
chain: MDNVLPVDSDLSPNISTNTSEPNQFVQPAWQIVLWAAAYTVIVVTSVVGNVVVMWIILAHKRMRTVTNYFLVNLAFAEASMAAFNTVVNFTYAVHNEWYYGLFYCKFHNFFPIAAVFASIYSMTAVAFDRYMAIIHPLQPRLSATATKVVICVIWVLALLLAFPQGYYSTTETMPSRVVCMIEWPEHPNKIYEKVYHICVTVLIYFLPLLVIGYAYTVVGITLWASEIPGDSSDRYHEQVSAKRKVVKMMIVVVCTFAICWLPFHIFFLLPYINPDLYLKKFIQQVYLAIMWLAMSSTMYNPIIYCCLNDRFRLGFKHAFRCCPFISAGDYEGLEMKSTRYLQTQGSVYKVSRLETTISTVVGAHEEEPEDGPKATPSSLDLTSNCSSRSDSKTMTESFSFSSNVLS
